Data: patent publication US20060177448

Biological target: gDHER2(DIV)-IgG, P04626

B1: purified catalytic domain of MT5-MMP (MMP-25) (protein)
chain: YALSGSVWKKRTLTWRVRSFPQSSQLSQETVRVLMSYALMAWGMESGLTFHEVDSPQGQEPDILIDFARAFHQDSYPFDGLGGTLAHAFFPGEHPISGDTHFDDEETWTFGSKDGEGTDLFAVAVHEFGHALGLGHSSAPNSIMRPFYQGPVGDPDKYRLSQDDRDGLQQLYG
Q: For B1, which “in vitro HER2 cleavage (sheddase) assay, stained gel” value is on record?
A: The value was “All MT-MMPs except MMP-14 efficiently cleave gDHER2(DIV)-IgG substrate”.
